doi:10.1101/2023.08.10.552762
Values belong to the molecule of their own block, whether it stands above or below them.

Tests used:
[1] = target: Escherichia coli SduA (Shedu system, E. coli KTE10) (Escherichia coli KTE10); test: SEC-MALS
EcSduA (Shedu SduA) [2] = target: T1, EcSduA (Shedu SduA) (Escherichia coli, UniProt PDB:8PS5_1 1-411); test: cryo-EM structure
T1 sequence: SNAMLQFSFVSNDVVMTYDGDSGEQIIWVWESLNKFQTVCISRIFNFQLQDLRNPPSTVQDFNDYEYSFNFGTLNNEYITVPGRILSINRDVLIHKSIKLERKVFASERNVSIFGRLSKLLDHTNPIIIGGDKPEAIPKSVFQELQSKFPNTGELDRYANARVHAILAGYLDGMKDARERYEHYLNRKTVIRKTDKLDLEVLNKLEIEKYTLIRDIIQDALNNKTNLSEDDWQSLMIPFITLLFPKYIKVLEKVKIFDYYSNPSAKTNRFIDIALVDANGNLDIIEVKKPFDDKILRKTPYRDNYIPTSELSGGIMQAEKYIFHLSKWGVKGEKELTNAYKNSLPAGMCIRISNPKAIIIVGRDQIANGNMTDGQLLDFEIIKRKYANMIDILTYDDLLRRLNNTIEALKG

EcSduA (Shedu SduA) [3] = target: T1, EcSduA (Shedu SduA); test: fluorescence polarization

stoichiometry N [1]: 4
Molecule: Escherichia coli SduA (Shedu system, E. coli KTE10) (enzyme)

B1: 40 bp palindromic dsDNA oLL314 (dsDNA)
DNA 1: CTAGTGCATCTGAATCGTCATGACGATTCAGATGCACTAG
DNA 2: B1 DNA 1
binding result (EcSduA (Shedu SduA) [2]): binds

B2: 40 bp dsDNA oLL321/oLL322 (dsDNA)
DNA 1: GATACCAGCTCTATGTTGACCTCTCAGATCGGCACTACTT
DNA 2: AAGTAGTGCCGATCTGAGAGGTCAACATAGAGCTGGTATC
Kd (EcSduA (Shedu SduA) [3]): 11.9 ± 0.4 nM
